Consider four molecules from US10112983B2, “Neuregulin variants and methods of screening and using thereof” (Zensun (Shanghai) Science & Technology, Co., Ltd., priority 2005, dated 2018).

For assay [1], the target named is T1, ErbB2&ErbB4 co-expressing COS 7 cells (Homo sapiens, UniProt Q15303).
T1 construct: expressed in transfected cells; host or cells: COS 7
Kind of assay: Receptor binding affinity assay (competition of bound radiolabeled ligand) on COS7 cells. The following applies: for receptor binding affinity compared with neuregulin: ErbB2&ErbB4 co-expressing cells; for EC50: Table 7 (footnote defines KD), read-out: EC50, COS7 cells (ErbB2&ErbB4 co-expression). How it is done:
(§1) To study the receptor binding affinity of neuregulin and its mutations, ErbB2&ErbB3 or ErB2&ErB4 co-expressing COS 7 are used. The cells are grown to 80% confluence. In the afternoon, after the cells reach 80% confluence, the media is changed to serum free media.

Assay [2] has as its target T2, ErbB2&ErbB3 co-expressing COS 7 cells (Homo sapiens, UniProt P21860).
T2 construct: expressed in transfected cells; host or cells: COS 7
The assay is described as above. As to conditions: for receptor binding affinity compared with neuregulin: ErbB2&ErbB3 co-expressing cells; for EC50: Table 7 (footnote defines KD), read-out: EC50, COS7 cells (ErbB2&ErbB3 co-expression). The method, then:
as §1

Assay [3] addresses T1, ErbB2&ErbB4 co-expressing COS 7 cells. Kind of assay: Signal transduction: AKT phosphorylation by western blot. The class given is cell-based. As to conditions: 10 minutes. How it is done:
(§2) Similarly, to study the signal transduction ability of neuregulin and its mutations, ErbB2&ErbB3 or ErbB2&ErbB4 co-expressing COS 7 cells are used. The cells are grown to 80% confluence. In the afternoon, after the cells reach 80% confluence, the media is changed to serum free media. Then after 24 hours, different amounts of neuregulin or neuregulin variants are added into separate wells containing the cells. After 10 minutes, loading buffer is added to lyse the cells. The sample is then harvested and loaded into a separate well of gel for electrophoresis and western blot analysis.

Assay [4] concerns the target T2, ErbB2&ErbB3 co-expressing COS 7 cells. Described as above. The class given is cell-based. The following applies: 10 minutes. The method, then: as §2

B1: L3A: neuregulin fragment (177-237) with alanine substitution for the 3rd amino acid (protein)
chain: SHAVKCAEKEKTFCVNGGECFMVKDLSNPSRYLCKCPNEFTGDRCQNYVMASFYKAEELYQ
Broadly, the EC50 is the concentration that produces a half-maximal response. Regarding B1, the figures for the “receptor binding affinity compared with neuregulin” value in assay [1] and in assay [2] were “much lower” and “nearly the same receptor binding affinity”, respectively. The values for the EC50 in assay [1] and in assay [2] were 1.06 µM and 1.15 µM, respectively. In addition, the “AKT phosphorylation compared with neuregulin” value in assay [3] is “more AKT phosphorylation than neuregulin”; in assay [4] it was “less AKT phosphorylation than neuregulin”.

B2: 8A47A: neuregulin double mutant, simultaneous alanine substitutions for the 8th and 47th amino acids of the neuregulin fragment (protein)
chain: SHLVKCAAKEKTFCVNGGECFMVKDLSNPSRYLCKCPNEFTGDRCQAYVMASFYKAEELYQ
On to B2, for which the “AKT phosphorylation compared with neuregulin” value in assay [3] is listed as “much more AKT phosphorylation than neuregulin”; in assay [4], “nearly same AKT phosphorylation as neuregulin”.

B3: NRG: the 177-237 amino acids fragment of neuregulin1β2 (SEQ ID NO:1) (protein, listed as Homo sapiens)
chain: SHLVKCAEKEKTFCVNGGECFMVKDLSNPSRYLCKCPNEFTGDRCQNYVMASFYKAEELYQ
For B3, the figures for the EC50 in assay [1] and in assay [2] were 0.282 µM and 1.41 µM, respectively.

B4: D43A: neuregulin fragment (177-237) with alanine substitution for the 43rd amino acid (protein)
chain: SHLVKCAEKEKTFCVNGGECFMVKDLSNPSRYLCKCPNEFTGARCQNYVMASFYKAEELYQ
Consider B4, for which the “receptor binding affinity compared with neuregulin” value is “much higher” in assay [1] and “nearly the same receptor binding affinity” in assay [2]. In addition, the “AKT phosphorylation compared with neuregulin” value in assay [3] is “more AKT phosphorylation than neuregulin”; in assay [4], “less AKT phosphorylation than neuregulin”.
